According to PMC9382030 (Current biology : CB, 2022):

Target: T1, phosphatidylinositol 4-phosphate 5-kinase type-1 gamma (PIP5K1C) (human, UniProt O60331 1-668)
T1 construct: PIP5K1C, human; also called PIPK1 gamma 90; source: Sf9, baculovirus, purified (amylose resin, HRV-3C cleavage, SEC); not shown: His6, N-terminal, cleaved; MBP, N-terminal, cleaved
Test: pull-down; purified GST, GST-Arf6-T27N or GST-Arf6-Q67L bound to GSH agarose as bait; purified PIP5K1C 400 nM as prey, 1 h at 4 °C; 20 mM HEPES, 250 mM NaCl, 0.5 mM TCEP; SDS-PAGE and Coomassie staining
Settings: both partners purified

T1 sequence (O60331 whole entry): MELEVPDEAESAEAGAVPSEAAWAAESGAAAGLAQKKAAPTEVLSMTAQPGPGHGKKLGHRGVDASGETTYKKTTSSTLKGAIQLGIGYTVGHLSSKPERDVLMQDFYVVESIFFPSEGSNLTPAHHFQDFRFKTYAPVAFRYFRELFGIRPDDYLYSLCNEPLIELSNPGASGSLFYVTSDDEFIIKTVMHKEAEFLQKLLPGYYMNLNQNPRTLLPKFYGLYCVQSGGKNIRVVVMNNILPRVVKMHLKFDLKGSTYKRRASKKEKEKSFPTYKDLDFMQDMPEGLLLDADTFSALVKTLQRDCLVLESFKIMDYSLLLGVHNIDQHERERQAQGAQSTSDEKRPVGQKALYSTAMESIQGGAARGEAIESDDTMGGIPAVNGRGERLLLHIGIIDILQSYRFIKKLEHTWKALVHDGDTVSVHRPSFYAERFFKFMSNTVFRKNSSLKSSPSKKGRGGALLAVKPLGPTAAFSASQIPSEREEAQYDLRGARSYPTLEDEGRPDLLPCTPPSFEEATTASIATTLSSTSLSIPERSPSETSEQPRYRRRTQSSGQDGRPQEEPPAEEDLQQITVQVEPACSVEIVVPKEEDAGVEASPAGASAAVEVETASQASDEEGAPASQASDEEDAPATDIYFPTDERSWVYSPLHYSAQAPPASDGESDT

B1: GST-Arf6-Q67L (natural protein, human, UniProt P62330 1-175, looked up)
chain: MGKVLSKIFGNKEMRILMLGLDAAGKTTILYKLKLGQSVTTIPTVGFNVETVTYKNVKFNVWDVGGLDKIRPLWRHYYTGTQGLIFVVDCADRDRIDEARQELHRIINDREMRDAIILIFANKQDLPDAMKPHEIQEKLGLTRIRDRNWYVQPSCATSGDGLYEGLTWLTSNYKS
notes: Arf6, human; pGEX-6P-1 Arf6-Q67L; In the phosphoinositide conversion assay an N-terminal 6xHis form (pOCC3) was used instead; also called constitutively active Arf6; source: E. coli BL21, purified (GSH agarose, SEC); not shown: GST, N-terminal, kept
binding result: binds
